Laboratory results from IntAct's records for PubMed 24056087.

B1: ADP-ribosylation factor 6 (Homo sapiens), P62330 (parent)
chain: MGKVLSKIFGNKEMRILMLGLDAAGKTTILYKLKLGQSVTTIPTVGFNVETVTYKNVKFNVWDVGGQDKIRPLWRHYYTGTQGLIFVVDCADRDRIDEARQELHRIINDREMRDAIILIFANKQDLPDAMKPHEIQEKLGLTRIRDRNWYVQPSCATSGDGLYEGLTWLTSNYKS
partner: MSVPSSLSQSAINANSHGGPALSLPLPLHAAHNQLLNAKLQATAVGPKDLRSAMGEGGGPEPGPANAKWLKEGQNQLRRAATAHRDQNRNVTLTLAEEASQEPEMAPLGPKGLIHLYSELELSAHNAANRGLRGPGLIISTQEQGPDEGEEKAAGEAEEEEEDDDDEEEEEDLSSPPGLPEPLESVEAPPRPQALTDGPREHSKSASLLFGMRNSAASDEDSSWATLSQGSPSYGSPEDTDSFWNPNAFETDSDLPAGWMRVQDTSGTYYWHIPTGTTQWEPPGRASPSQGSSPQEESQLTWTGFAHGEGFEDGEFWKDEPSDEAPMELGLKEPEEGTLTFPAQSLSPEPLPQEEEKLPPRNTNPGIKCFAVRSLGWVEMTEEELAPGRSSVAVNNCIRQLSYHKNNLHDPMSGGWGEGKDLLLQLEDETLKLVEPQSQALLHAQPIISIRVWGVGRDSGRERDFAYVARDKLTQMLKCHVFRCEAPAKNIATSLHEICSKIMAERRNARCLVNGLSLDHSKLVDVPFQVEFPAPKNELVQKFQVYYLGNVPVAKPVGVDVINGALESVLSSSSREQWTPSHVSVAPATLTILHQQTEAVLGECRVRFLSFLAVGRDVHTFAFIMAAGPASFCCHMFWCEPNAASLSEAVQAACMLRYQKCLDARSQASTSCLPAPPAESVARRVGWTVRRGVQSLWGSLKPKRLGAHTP
B2: ADP-ribosylation factor 6 (Homo sapiens), P62330 (parent)
chain: B1 chain
partner: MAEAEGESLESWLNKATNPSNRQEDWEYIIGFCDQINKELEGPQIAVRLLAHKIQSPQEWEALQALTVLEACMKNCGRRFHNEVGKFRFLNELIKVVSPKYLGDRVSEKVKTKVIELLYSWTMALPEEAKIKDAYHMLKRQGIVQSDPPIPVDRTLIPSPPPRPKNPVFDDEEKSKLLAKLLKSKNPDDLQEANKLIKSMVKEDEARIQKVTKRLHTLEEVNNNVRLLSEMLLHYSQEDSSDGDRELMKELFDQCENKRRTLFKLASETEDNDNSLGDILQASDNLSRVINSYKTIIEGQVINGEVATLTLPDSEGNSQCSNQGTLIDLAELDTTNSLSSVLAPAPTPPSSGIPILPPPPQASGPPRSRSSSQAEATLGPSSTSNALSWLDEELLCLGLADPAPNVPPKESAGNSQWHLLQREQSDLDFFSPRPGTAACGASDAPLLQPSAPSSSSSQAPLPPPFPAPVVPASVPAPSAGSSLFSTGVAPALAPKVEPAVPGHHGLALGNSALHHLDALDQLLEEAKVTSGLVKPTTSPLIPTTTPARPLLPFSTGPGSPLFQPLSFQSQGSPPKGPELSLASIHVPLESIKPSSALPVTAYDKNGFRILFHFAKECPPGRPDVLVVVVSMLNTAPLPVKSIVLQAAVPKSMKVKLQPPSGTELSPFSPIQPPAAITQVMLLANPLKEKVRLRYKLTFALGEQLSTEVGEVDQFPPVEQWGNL

Variants of: B1
Conditions: with apbb1_human APBB1, O00213

| effect of a mutation on the interaction | Variant |
| --- | --- |
| disrupting interaction strength | Q67L |
| increasing interaction strength | T27N |

Variants of: B2
Conditions: with gga3_human GGA3, Q9NZ52

| effect of a mutation on the interaction | Variant |
| --- | --- |
| increasing interaction strength | Q67L |
| decreasing interaction strength | T27N |
